Assay results from paper doi:10.1101/2022.10.06.511153 (bioRxiv, 2022).

Experiments:
[1] = target: MksB (Corynebacterium glutamicum) (UniProt Q8NLY2); assay: BLI
[2] = target: MksE (Corynebacterium glutamicum) (UniProt Q8NLY1); assay: BLI
crystal structure = target: the molecule itself; assay: crystal structure

Molecule	Kd [1] [µM]	Kd [2] [µM]	stoichiometry N (crystal structure)
MksF (from UniProt Q8NLY0 1-495) (natural protein)	4.94	2.17	
MksG (6xHis-SUMO construct for crystallization) (natural protein, Corynebacterium glutamicum) MPLFIDDALHRSKKYFHAHLSELLLGEFAGLSLPLHPPTAAKAAADIDATREFIRQWEGRDDVEYAIRNWSPVGLGKTEVPVRLTLNTTEELVVFAQVEDEWSSLHERFSQLSGFTAEVVAKHVSLWRSLSNDDLSKAVLVVDWFLKHPNSGLLKRAVAVEGVHTKWLENHRVLIETLVADKRGEPGRADLGLGDAEARVRLRFHSVDAPAGLTDIEVPLSNLCELQEPQVILMVENLDSFLALPTWPGVTIAWGAGYRAVDIVRGPYFSNGRLLYWGDLDLDGFKILDGVRSHVPHTESVLMNSETVSRWRYLGVADREFKAESFDNLHDFESDALDLLITDGELRIEQERIRLDVAVEEIEKVIRG			2
